The source of these data is patent US20250235479A1 (INNOBATION BIO, published 2025).

The target in test [1] is T1, CD22 expressed on cells (U2932, NALM6, K562/CD22+ cells) (UniProt P20273 20-847, limits assumed).
T1 construct: whole, on cells; the cell lines are human lines; also called cells expressing CD22
T1 sequence (looked up): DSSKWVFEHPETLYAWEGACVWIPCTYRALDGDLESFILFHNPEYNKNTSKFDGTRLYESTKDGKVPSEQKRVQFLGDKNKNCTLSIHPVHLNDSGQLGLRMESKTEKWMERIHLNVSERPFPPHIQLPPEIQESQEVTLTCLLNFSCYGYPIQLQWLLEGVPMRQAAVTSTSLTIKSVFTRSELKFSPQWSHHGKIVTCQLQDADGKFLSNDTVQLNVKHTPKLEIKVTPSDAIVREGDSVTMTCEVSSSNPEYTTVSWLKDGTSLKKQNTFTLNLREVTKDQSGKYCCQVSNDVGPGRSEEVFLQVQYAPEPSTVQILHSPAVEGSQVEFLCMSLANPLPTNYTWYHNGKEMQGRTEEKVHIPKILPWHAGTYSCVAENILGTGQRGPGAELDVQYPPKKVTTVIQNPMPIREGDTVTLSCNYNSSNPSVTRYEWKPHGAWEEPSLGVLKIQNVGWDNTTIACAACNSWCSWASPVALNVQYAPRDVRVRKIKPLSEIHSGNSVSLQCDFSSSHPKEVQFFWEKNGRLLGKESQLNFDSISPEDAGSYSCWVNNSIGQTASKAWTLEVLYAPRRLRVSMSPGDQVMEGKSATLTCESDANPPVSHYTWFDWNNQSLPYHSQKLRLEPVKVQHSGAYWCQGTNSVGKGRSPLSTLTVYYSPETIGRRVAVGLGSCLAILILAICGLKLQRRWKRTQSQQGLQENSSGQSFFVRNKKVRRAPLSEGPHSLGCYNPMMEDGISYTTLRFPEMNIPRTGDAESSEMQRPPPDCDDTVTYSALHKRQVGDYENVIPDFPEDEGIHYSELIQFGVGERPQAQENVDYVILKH
Put plainly: flow cytometry on U2932 cells expressing CD22. (In general: In flow cytometry, cells or beads pass a laser one at a time.)

Test [2] concerns the target T2, CD22 protein (ACRObiosystems Inc., cat #CD2-H52H8, USA) (UniProt P20273 20-687).
T2 construct: Named as the immunogen
T2 sequence (looked up): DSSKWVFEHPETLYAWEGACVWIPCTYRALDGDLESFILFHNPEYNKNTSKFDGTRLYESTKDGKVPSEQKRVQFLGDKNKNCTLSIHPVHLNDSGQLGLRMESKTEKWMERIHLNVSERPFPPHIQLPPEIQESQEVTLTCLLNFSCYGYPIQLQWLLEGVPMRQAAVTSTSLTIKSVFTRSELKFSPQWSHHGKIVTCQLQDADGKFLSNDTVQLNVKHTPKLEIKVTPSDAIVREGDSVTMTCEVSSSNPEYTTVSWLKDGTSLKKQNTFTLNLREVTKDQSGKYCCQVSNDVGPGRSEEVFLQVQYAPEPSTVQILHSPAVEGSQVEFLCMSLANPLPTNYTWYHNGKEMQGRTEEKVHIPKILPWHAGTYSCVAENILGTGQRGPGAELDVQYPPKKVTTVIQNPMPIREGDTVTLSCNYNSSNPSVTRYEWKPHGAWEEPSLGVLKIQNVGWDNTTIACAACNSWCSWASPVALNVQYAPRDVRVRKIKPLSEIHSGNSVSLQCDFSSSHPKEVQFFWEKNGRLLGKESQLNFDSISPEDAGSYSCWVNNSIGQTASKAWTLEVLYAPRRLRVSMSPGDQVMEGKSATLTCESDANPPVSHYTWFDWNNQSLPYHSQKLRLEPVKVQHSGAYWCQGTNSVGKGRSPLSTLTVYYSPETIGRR
Put plainly: ELISA screening of hybridoma clones. The source says:
A limiting dilution method was used to select a hybridoma that produces an antibody binding to CD22 from among the proliferated hybridomas. First, the number of cells was reduced to 1 cell or less per […], and then it was confirmed by ELISA whether an antibody obtained from a clone proliferated from one cell bound to CD22, and a clone binding to CD22 was selected. The above process was repeated three times to select hybridomas that produced the antibody binding to CD22. The antibody binding to CD22 was obtained in this manner.

B1: humanized anti-CD22 antibody 2G1(V4) (antibody, V domains shown)
VH: EVQLQESGPGLVKPSQTLSLTCTVSGFSLTSYDISWIRQPPGKGLEWLGVIWTGGGTNYNSALKSRVTISKDNSKSQVSLKLSSVTAADTAVYYCVPHYYGYAMDYWGQGTTVTVSS
VL: EIVLTQSPATLSLSPGERATLSCRASQDINKYIAWYQQKPGQAPRLLIHYTSTRQTGIPARFSGSGSGRDYTLTISSLEPEDFAVYYCLQYDNLLTFGGGTKLEIK
notes: CDR-grafted humanized form of 2G1
Turning to B1, in test [1], the binding result is on record as “binds”.

B2: humanized anti-CD22 antibody 2G1(V12) (antibody, V domains shown)
VH: EVQLKESGPVLVKPTETLTLTCTVSGFSLTSYDISWIRQPPGKALEWLGVIWTGGGTNYNSALKSRLTISKDNSKSQVVLTMTNMDPVDTATYYCVPHYYGYAMDYWGQGTTVTVSS
VL: B1 VL
notes: as for B1
Consider B2, for which the binding result in test [1] was “binds”.

B3: 2G1 antibody (mouse anti-CD22 antibody) (antibody, V domains shown)
VH: EVQLQESGPGLVAPSQSLSITCTVSGFSLTSYDISWIRQPPGKGLEWLGVIWTGGGTNYNSAFMSRLSISKDNSKSQVFLKMNSLQTDDTAIYYCVPHYYGYAMDYWGQGTSVTVSS
VL: DIVLTQSPSSLSASLGGKVTITCKASQDINKYIAWYQHKPGKGPRLLIHYTSTLQPGIPSRFSGSGSGRDYSFSISNLEPEDIATYYCLQYDNLLTFGAGTKLELK
notes: Obtained from a mouse hybridoma; also called mouse 2G1 antibody
For the molecule B3, the binding result in test [2] and in test [1] was “binds” throughout.
